Experimental data from patent US20250382363A1 (NUMAB THERAPEUTICS, published 2025).
Changes are numbered by the printed parent chain. Names may count otherwise.

B1: PRO2230 (scFv 37-20-B03-sc09.1) (scFv)
scFv: DIQMTQSPASLSASVGDRVTITCQASQSIGTYLAWYQQKPGKPPKLLIYRAFILASGVPSRFSGSGSGTDFTLTISSLQPEDFATYYCQSNFYSDSTTIGPNAFGTGTKVTVLGGGGGSGGGGSGGGGSGGGGSEVQLVESGGGLVQPGGSLRLSCAASGFSFNSDYWIYWVRQAPGKGLEWIASIYGGSSGNTQYASWAQGRFTISRDNSKNTVYLQMNSLRAEDTAVYFCARGYVDYGGATDLWGQGTLVTVSS
notes: also called PRO2230 wt; a-PD-L1 wt
B2: PRO3310 (scFv 37-20-B03-sc09.1_(L12R, T101R, L144A, T146Q)) (scFv)
scFv: B1 scFv with L145R, T227R, L251A, T253Q
notes: PRO2230 variant; VH substitutions, AHo numbering; also called PRO2230 L12R-T101R-L144A-T146Q
B3: PRO2950 (scFv 37-20-B03-sc09.1_(T146Q)) (scFv)
scFv: B1 scFv with T253Q
notes: PRO2230 variant; VH substitution, AHo numbering; also called PRO2230 T146Q
B4: PRO2934 (scFv 37-20-B03-sc09.1_(L144K, S148L)) (scFv)
scFv: B1 scFv with L251K, S255L
notes: PRO2230 variant; VH substitutions, AHo numbering; also called PRO2230 L144K-S148L
B5: PRO3317 (scFv 37-20-B03-sc09.1_(T101Q)) (scFv)
scFv: B1 scFv with T227Q
notes: PRO2230 variant; VH substitution, AHo numbering; also called PRO2230 T101Q
B6: PRO2988 (scFv 37-20-B03-sc09.1_(P48A)) (scFv)
scFv: B1 scFv with P176A
notes: PRO2230 variant; VH substitution, AHo numbering; also called PRO2230 P48A
B7: PRO2984 (scFv 37-20-B03-sc09.1_(L12S, V103T, L144T)) (scFv)
scFv: B1 scFv with L145S, V229T, L251T
notes: VH substitutions, AHo numbering; also called PRO2230-L12S-V103T-L144T
B8: PRO2935 (scFv 37-20-B03-sc09.1_(L144A, S148N)) (scFv)
scFv: B1 scFv with L251A, S255N
notes: PRO2230 variant; VH substitutions, AHo numbering; also called PRO2230 L144A-S148N
B9: PRO2951 (scFv 37-20-B03-sc09.1_(T101R)) (scFv)
scFv: B1 scFv with T227R
notes: PRO2230 variant; VH substitution, AHo numbering; also called PRO2230 T101R
B10: PRO2948 (scFv 37-20-B03-sc09.1_(T146R)) (scFv)
scFv: B1 scFv with T253R
notes: PRO2230 variant; VH substitution, AHo numbering; also called PRO2230 T146R
B11: PRO3311 (scFv 37-20-B03-sc09.1_(L12A, T101Q, L144A, T146Q)) (scFv)
scFv: B1 scFv with L145A, T227Q, L251A, T253Q
notes: PRO2230 variant; VH substitutions, AHo numbering; also called PRO2230 L12A-T101Q-L144A-T146Q
B12: PRO3312 (scFv 37-20-B03-sc09.1_(T101R, T146Q)) (scFv)
scFv: B1 scFv with T227R, T253Q
notes: PRO2230 variant; VH substitutions, AHo numbering; also called PRO2230 T101R-T146Q
B13: PRO3339 (scFv 37-20-B03-sc09.1_(T101N, T146Q)) (scFv)
scFv: B1 scFv with T227N, T253Q
notes: PRO2230 variant; VH substitutions, AHo numbering; also called PRO2230 T101N-T146Q
B14: PRO2903 (scFv 37-20-B03-sc09.1_(L12R, V103T, L144Q)) (scFv)
scFv: B1 scFv with L145R, V229T, L251Q
notes: VH substitutions, AHo numbering; also called PRO2230-L12R-V103T-L144Q
B15: PRO2913 (scFv 37-20-B03-sc09.1_(T101S, T146Q)) (scFv)
scFv: B1 scFv with T227S, T253Q
notes: PRO2230 variant; VH substitutions, AHo numbering; also called PRO2230 T101S-T146Q
B16: PRO2915 (scFv 37-20-B03-sc09.1_(L12A, T101S, L144A, T146Q)) (scFv)
scFv: B1 scFv with L145A, T227S, L251A, T253Q
notes: PRO2230 variant; VH substitutions, AHo numbering; also called PRO2230 L12A-T101S-L144A-T146Q
B17: PRO2985 (scFv 37-20-B03-sc09.1_(T101A)) (scFv)
scFv: B1 scFv with T227A
notes: PRO2230 variant; VH substitution, AHo numbering; also called PRO2230 T101A
B18: PRO2952 (scFv 37-20-B03-sc09.1_(T101S)) (scFv)
scFv: B1 scFv with T227S
notes: PRO2230 variant; VH substitution, AHo numbering; also called PRO2230 T101S
B19: PRO2986 (scFv 37-20-B03-sc09.1_(T146A)) (scFv)
scFv: B1 scFv with T253A
notes: PRO2230 variant; VH substitution, AHo numbering; also called PRO2230 T146A
B20: PRO3308 (scFv 37-20-B03-sc09.1_(L12A, T101S, L144K, T146Q)) (scFv)
scFv: B1 scFv with L145A, T227S, L251K, T253Q
notes: PRO2230 variant; VH substitutions, AHo numbering; also called PRO2230 L12A-T101S-L144K-T146Q
B21: PRO3307 (scFv 37-20-B03-sc09.1_(L12A, T101S, L144A, T146R)) (scFv)
scFv: B1 scFv with L145A, T227S, L251A, T253R
notes: PRO2230 variant; VH substitutions, AHo numbering; also called PRO2230 L12A-T101S-L144A-T146R
B22: PRO3314 (scFv 37-20-B03-sc09.1_(T101Q, T146Q)) (scFv)
scFv: B1 scFv with T227Q, T253Q
notes: PRO2230 variant; VH substitutions, AHo numbering; also called PRO2230 T101Q-T146Q
B23: PRO2914 (scFv 37-20-B03-sc09.1_(T101S, L144A, T146Q)) (scFv)
scFv: B1 scFv with T227S, L251A, T253Q
notes: PRO2230 variant; VH substitutions, AHo numbering; also called PRO2230 T101S-L144A-T146Q
B24: PRO2933 (scFv 37-20-B03-sc09.1_(L144K, T146E, S148K)) (scFv)
scFv: B1 scFv with L251K, T253E, S255K
notes: PRO2230 variant; VH substitutions, AHo numbering; also called PRO2230 L144K-T146E-S148K
B25: PRO3306 (scFv 37-20-B03-sc09.1_(L12A, T101R, L144A, T146Q)) (scFv)
scFv: B1 scFv with L145A, T227R, L251A, T253Q
notes: PRO2230 variant; VH substitutions, AHo numbering; also called PRO2230 L12A-T101R-L144A-T146Q
B26: PRO3309 (scFv 37-20-B03-sc09.1_(L12R, T101S, L144A, T146Q)) (scFv)
scFv: B1 scFv with L145R, T227S, L251A, T253Q
notes: PRO2230 variant; VH substitutions, AHo numbering; also called PRO2230 L12R-T101S-L144A-T146Q
B27: PRO2987 (scFv 37-20-B03-sc09.1_(P15A)) (scFv)
scFv: B1 scFv with P148A
notes: PRO2230 variant; VH substitution, AHo numbering; also called PRO2230 P15A
B28: PRO2949 (scFv 37-20-B03-sc09.1_(T146E)) (scFv)
scFv: B1 scFv with T253E
notes: PRO2230 variant; VH substitution, AHo numbering; also called PRO2230 T146E
B29: PRO3338 (scFv 37-20-B03-sc09.1_(T101K, T146Q)) (scFv)
scFv: B1 scFv with T227K, T253Q
notes: PRO2230 variant; VH substitutions, AHo numbering; also called PRO2230 T101K-T146Q
B30: PRO3313 (scFv 37-20-B03-sc09.1_(T101S, T146R)) (scFv)
scFv: B1 scFv with T227S, T253R
notes: PRO2230 variant; VH substitutions, AHo numbering; also called PRO2230 T101S-T146R
B31: PRO2947 (scFv 37-20-B03-sc09.1_(T146K)) (scFv)
scFv: B1 scFv with T253K
notes: PRO2230 variant; VH substitution, AHo numbering; also called PRO2230 T146K

Biological target: pre-existing anti-drug antibodies (ADA) present in human sera
Experiment: pre-existing ADA ELISA, scFv coated, human sera unspiked vs spiked

Row | Binder | Mean No of serum samples >30% inhibition (30% CCP) with SCP (serum samples) | No of serum samples >30% inhibition (30% CCP) without SCP (serum samples)
1 | B1 | 9 | 18
2 | B2 | 3 | 6
3 | B3 | 4 | 4
4 | B4 | 2 | 2
5 | B5 | 1 | 7
6 | B6 | 3 | 7
7 | B7 | 5 | 5
8 | B8 | 8 | 8
9 | B9 | 1 | 0
10 | B10 | 1 | 0
11 | B11 | 7 | 10
12 | B12 | 1 | 2
13 | B13 | 0 | 0
14 | B14 | 5 | 5
15 | B15 | 3 | 2
16 | B16 | 2 | 1

Row | Binder | Mean No of serum samples >30% inhibition (30% CCP) with SCP (serum samples) | No of serum samples >30% inhibition (30% CCP) without SCP (serum samples)
17 | B17 | 2 | 2
18 | B18 | 5 | 8
19 | B19 | 8 | 2
20 | B20 | 2 | 7
21 | B21 | 4 | 7
22 | B22 | 1 | 4
23 | B23 | 5 | 5
24 | B24 | 1 | 0
25 | B25 | 0 | 7
26 | B26 | 1 | 4
27 | B27 | 2 | 7
28 | B28 | 1 | 2
29 | B29 | 0 | 0
30 | B30 | 1 | 5
31 | B31 | 1 | 2

Biological target: T1, human a-PD-L1 Fc (Sino Biological, 10084-H02H, LC11NO2402) (human, UniProt Q9NZQ7 19-239)
T1 construct: Bought Fc fusion immobilised on the SPR chip; Printed as 'a-PD-L1 Fc' but used as the antigen (ligand) for the anti-PD-L1 scFvs; also called Human PD-L1; not shown: Fc part
Experiment: SPR, PD-L1 Fc immobilised, scFv analyte, 1:1 fit
Description: The mutation variants were then injected at concentrations of 10 nM, 2 nM and 0.4 nM over the ligand-immobilized and reference spots. The wild type variants were used as a control, while an empty spot was used as reference.
After each cycle with analyte, the surface was regenerated with a 3M MgCl₂ solution, thereby allowing the next analyte cycle to have only free ligand available. Binding affinity KD was globally calculated by the Bruker SPR software based on the binding association (kₒₙ) and dissociation (Koff) rate, by fitting a 1:1 Langmuir model to the curves obtained by the cycles with the three different concentrations of the analyte.

T1 sequence (Q9NZQ7 19-239 limits assumed): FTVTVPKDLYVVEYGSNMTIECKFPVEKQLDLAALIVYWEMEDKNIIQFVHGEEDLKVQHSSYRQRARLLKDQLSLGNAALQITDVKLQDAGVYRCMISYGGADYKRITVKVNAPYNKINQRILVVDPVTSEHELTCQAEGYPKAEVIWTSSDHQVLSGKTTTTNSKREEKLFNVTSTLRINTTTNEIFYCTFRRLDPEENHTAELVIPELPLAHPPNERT

Row | Binder | Kd | n-fold to wt
32 | B1 | 0.049 nM | 1 fold
33 | B2 | 0.038 nM | 0.8 fold
34 | B3 | 0.064 nM | 1.3 fold
35 | B4 | 0.018 nM | 0.4 fold
36 | B5 | 0.042 nM | 0.9 fold
37 | B6 | 0.034 nM | 0.7 fold
38 | B7 | 0.036 nM | 0.7 fold
39 | B8 | 0.091 nM | 1.9 fold
40 | B9 | 0.042 nM | 0.9 fold
41 | B10 | 0.064 nM | 1.3 fold
42 | B11 | 0.048 nM | 1 fold
43 | B12 | 0.041 nM | 0.8 fold
44 | B13 | 0.035 nM | 0.7 fold
45 | B14 | 0.053 nM | 1.1 fold
46 | B15 | 0.058 nM | 1.2 fold
47 | B16 | 0.05 nM | 1 fold

Row | Binder | Kd | n-fold to wt
48 | B17 | 0.047 nM | 1 fold
49 | B18 | 0.036 nM | 0.7 fold
50 | B19 | 0.069 nM | 1.4 fold
51 | B20 | 0.036 nM | 0.7 fold
52 | B21 | 0.027 nM | 0.6 fold
53 | B22 | 0.027 nM | 0.6 fold
54 | B23 | 0.025 nM | 0.5 fold
55 | B24 | 0.045 nM | 0.9 fold
56 | B25 | 0.018 nM | 0.4 fold
57 | B26 | 0.026 nM | 0.5 fold
58 | B27 | 0.048 nM | 1 fold
59 | B28 | 0.056 nM | 1.1 fold
60 | B29 | 0.021 nM | 0.4 fold
61 | B30 | 0.014 nM | 0.3 fold
62 | B31 | 0.041 nM | 0.8 fold
